These results are taken from the supplement of paper PMC9112550, “Optimization of the antimicrobial peptide Bac7 by deep mutational scanning” (BMC Biology, 2022).

The data set deals with Escherichia coli TOP10. Description: shrunken log2 fold change of peptide-encoding DNA abundance (4.5 h post-induction vs induction); higher = less antimicrobial activity (less host growth inhibition). The settings on record: time post-induction: 4.5 h; library: site-saturation at positions 5, 18, 19, 20.
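Also: peptides expressed intracellularly from a pBAD plasmid library in pooled LB shake-flask culture, induced with 0.3% L-arabinose, DNA abundance read by NGS, three biological replicates, DESeq2 with apeglm shrinkage.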

Consider RRIRFRPPRLPRPRPRPNWRPRP, for which the “shrunken log2 fold change” value was -0.0764. As to RRIRYRPPRLPRPRPRPNMNPRP, the “shrunken log2 fold change” value is -0.882. For the sequence RRIRTRPPRLPRPRPRPFRLPRP, the “shrunken log2 fold change” value is -0.365. To RRIRRRPPRLPRPRPRPTMTPRP belongs 0.487; to RRIRVRPPRLPRPRPRPGSCPRP, 0.216. As to RRIRFRPPRLPRPRPRPPSGPRP, the “shrunken log2 fold change” value is 0.422. The value for RRIRLRPPRLPRPRPRPFIEPRP was -0.372. The value for RRIRKRPPRLPRPRPRPAFWPRP was 0.625; that for RRIRCRPPRLPRPRPRPEVIPRP was -0.083. Take RRIRFRPPRLPRPRPRPDIMPRP: the “shrunken log2 fold change” value is -0.06. Regarding RRIRERPPRLPRPRPRPACLPRP, the “shrunken log2 fold change” value is -0.0938. The value for RRIRLRPPRLPRPRPRPMIMPRP was -0.159.

On to RRIRWRPPRLPRPRPRPHDFPRP, for which the “shrunken log2 fold change” value was -0.313. On to RRIRKRPPRLPRPRPRPRVGPRP, for which the “shrunken log2 fold change” value is 0.279. The value for RRIRNRPPRLPRPRPRPESTPRP was -0.0329. To RRIRNRPPRLPRPRPRPEYWPRP belongs -0.103; to RRIRHRPPRLPRPRPRPNPMPRP, -0.00731; to RRIRWRPPRLPRPRPRPERVPRP, 0.447. The value for RRIRDRPPRLPRPRPRPWIQPRP was -0.653; that for RRIRYRPPRLPRPRPRPTLDPRP was -0.628; that for RRIRARPPRLPRPRPRPFAVPRP was 0.129. For RRIRDRPPRLPRPRPRPNSCPRP, the “shrunken log2 fold change” value worked out at 0.0563. The value for RRIRRRPPRLPRPRPRPTWIPRP was 0.53; that for RRIRERPPRLPRPRPRPNLYPRP was -0.022. RRIRQRPPRLPRPRPRPPQKPRP: the “shrunken log2 fold change” value was -0.167.

Take RRIRPRPPRLPRPRPRPRHVPRP: the “shrunken log2 fold change” value stood at 0.0494. With RRIRGRPPRLPRPRPRPHKYPRP, the “shrunken log2 fold change” value was -0.216. With RRIRDRPPRLPRPRPRPEEIPRP, the “shrunken log2 fold change” value is -0.0062.

For the sequence RRIRWRPPRLPRPRPRPACVPRP, the “shrunken log2 fold change” value is 0.347.

Take RRIRPRPPRLPRPRPRPAPVPRP: the “shrunken log2 fold change” value came to 0.409. Take RRIRMRPPRLPRPRPRPHERPRP: the “shrunken log2 fold change” value was 1.04. The value for RRIRERPPRLPRPRPRPYCHPRP was -0.467; that for RRIRYRPPRLPRPRPRPNWNPRP was -1.09; that for RRIRRRPPRLPRPRPRPKQLPRP was 0.148. The value for RRIRNRPPRLPRPRPRPAKTPRP was 0.0732. To RRIRWRPPRLPRPRPRPMEYPRP belongs 0.0388. Consider RRIRFRPPRLPRPRPRPKASPRP, for which the “shrunken log2 fold change” value turned out to be 0.157. Regarding RRIRWRPPRLPRPRPRPGMAPRP, the “shrunken log2 fold change” value was determined as 0.627. To RRIRHRPPRLPRPRPRPWMPPRP belongs 0.0474; to RRIRNRPPRLPRPRPRPLPVPRP, 0.437; to RRIRSRPPRLPRPRPRPTQWPRP, 0.354. The value for RRIRVRPPRLPRPRPRPWRAPRP was 0.414. On to RRIRSRPPRLPRPRPRPRYGPRP, for which the “shrunken log2 fold change” value was 0.0513. To RRIRPRPPRLPRPRPRPRDTPRP belongs -0.0427. With RRIRHRPPRLPRPRPRPSNCPRP, the “shrunken log2 fold change” value was -0.337. As to RRIRTRPPRLPRPRPRPHDPPRP, the “shrunken log2 fold change” value was -0.283. Turning to RRIRARPPRLPRPRPRPGCEPRP, the “shrunken log2 fold change” value was 1.1. The value for RRIRLRPPRLPRPRPRPVFMPRP was -0.203; that for RRIRVRPPRLPRPRPRPRQQPRP was 0.168; that for RRIRIRPPRLPRPRPRPAQVPRP was -0.00946.

Take RRIRHRPPRLPRPRPRPPVQPRP: the “shrunken log2 fold change” value was -0.0798. For the sequence RRIRRRPPRLPRPRPRPFPPPRP, the “shrunken log2 fold change” value came to 0.222. Consider RRIRLRPPRLPRPRPRPLYMPRP, for which the “shrunken log2 fold change” value is -0.763. To RRIRKRPPRLPRPRPRPRSKPRP belongs 0.254. The value for RRIRVRPPRLPRPRPRPYQRPRP was -0.0149; that for RRIRGRPPRLPRPRPRPMMPPRP was 0.119; that for RRIRNRPPRLPRPRPRPFSEPRP was -0.0347. The value for RRIRTRPPRLPRPRPRPEMVPRP was 0.134; that for RRIRKRPPRLPRPRPRPSFPPRP was -0.0425. Consider RRIRQRPPRLPRPRPRPTPKPRP, for which the “shrunken log2 fold change” value came to 1.53. To RRIRLRPPRLPRPRPRPLRMPRP belongs 0.222; to RRIRCRPPRLPRPRPRPPLSPRP, 0.312; to RRIRERPPRLPRPRPRPWFLPRP, -0.628. In the case of RRIRWRPPRLPRPRPRPCIEPRP, the “shrunken log2 fold change” value is -0.0674. To RRIRRRPPRLPRPRPRPFEGPRP belongs 0.0216; to RRIRDRPPRLPRPRPRPIDQPRP, -0.0222. The value for RRIRARPPRLPRPRPRPCPCPRP was -0.0932; that for RRIRLRPPRLPRPRPRPVQEPRP was -0.0609; that for RRIRQRPPRLPRPRPRPMRFPRP was 0.0202.

With RRIRERPPRLPRPRPRPACKPRP, the “shrunken log2 fold change” value stood at 0.104.

Turning to RRIRYRPPRLPRPRPRPFCAPRP, the “shrunken log2 fold change” value was -0.415. The value for RRIRCRPPRLPRPRPRPPHAPRP was 1.04.

RRIRQRPPRLPRPRPRPTIHPRP: the “shrunken log2 fold change” value is -0.32. As to RRIRGRPPRLPRPRPRPCPQPRP, the “shrunken log2 fold change” value worked out at 0.654.

With RRIRYRPPRLPRPRPRPLRPPRP, the “shrunken log2 fold change” value came to 0.786. The value for RRIRMRPPRLPRPRPRPNSFPRP was -0.298; that for RRIRDRPPRLPRPRPRPGCHPRP was 0.15. To RRIRIRPPRLPRPRPRPKPYPRP belongs -0.24; to RRIRSRPPRLPRPRPRPMADPRP, -0.0211.

Consider RRIRKRPPRLPRPRPRPEQPPRP, for which the “shrunken log2 fold change” value worked out at 0.328. Take RRIRPRPPRLPRPRPRPVENPRP: the “shrunken log2 fold change” value is 0.243. Consider RRIRGRPPRLPRPRPRPCNFPRP, for which the “shrunken log2 fold change” value was 0.138. In the case of RRIRMRPPRLPRPRPRPYDHPRP, the “shrunken log2 fold change” value is -0.141. As for RRIRLRPPRLPRPRPRPQDGPRP, the “shrunken log2 fold change” value is -0.0806. To RRIRPRPPRLPRPRPRPTQEPRP belongs 0.617; to RRIRARPPRLPRPRPRPPRPPRP, 1.

As for RRIRMRPPRLPRPRPRPPISPRP, the “shrunken log2 fold change” value stood at 0.163. The value for RRIRYRPPRLPRPRPRPIDDPRP was -1.19; that for RRIRERPPRLPRPRPRPELPPRP was -0.0646; that for RRIRFRPPRLPRPRPRPTMFPRP was -0.322. RRIRNRPPRLPRPRPRPQKPPRP: the “shrunken log2 fold change” value was found to be 0.0646.
